{"source": "patent US20250352624A1", "about": "“SUPEROXIDE DISMUTASE AND USES THEREOF FOR PREVENTING OR TREATING DRY EYE SYNDROME” (GENOFOCUS, INC., priority 2021, published 2025)", "molecules": {"B1": {"name": "SodA2: variant Mn-SOD of Bacillus amyloliquefaciens GF423 sodA, Asn73 and Asn136 replaced with Asp, SEQ ID NO: 4; given orally shellac-coated, mixed with dextrin (protein, listed as Bacillus amyloliquefaciens)", "chain": "MAYKLPELPYAYDALEPHIDKETMTIHHTKHHNTYVTNLNKAIEGSALAEKSVDELVADLNAVPEDIRTAVRDDGGGHANHSLFWTLLSPNGGGEPTGELAEEIKSTFGSFDQFKEKFAAAAAGRFGSGWAWLVVDDGKLEITSTPNQDSPLSEGKTPVLGLDVWEHAYYLNYQNRRPDYISAFWNVVNWDEVARLYSEAK", "modifications": "shellac coating; dextrin mixture"}}, "format_in_all_cases": "in vivo", "key": {"[1]": {"test_system": "experimental dry eye (EDE)-induced C57BL/6 mouse model", "experiment": "Reactive oxygen species (DCF-DA) by flow cytometry", "method": "(§1) To induce experimental dry eye, 7- to 8-week-old C57BL/6 mice (purchased from Damool Science) were injected subcutaneously with scopolamine hydrochloride at 0.5 mg/0.2 ml three times a day under exposure to a ventilating device for 18 hours a day. The humidity was maintained at 30%, and the temperature was maintained at 25° C. The C57BL/6 mice were classified into 7 groups, depending on concentrations of the oral drug to be administered, as shown in Table 6.\n(§2) After inducing experimental dry eye in the experimental mice, the drugs prepared in Example 3 were orally administered at 2 μL per dose once a day to the treatment groups (administered at 13:30 every day). In both eyes of all mice, at baseline, day 5, and day 10, tear volume and tear film break-up time were measured and corneal fluorescent staining score was examined. The mice were then sacrificed and tissue analysis was performed. Each group consisted of 6 animals.\nThe cornea, conjunctiva, and lacrimal gland were excised, sectioned with scissors, and then shaken with 0.5 mg/mL of collagenase type D (manufactured by Roche Applied Science, Indianapolis, IN, USA) at 37° C. for 60 minutes. The tissue was ground and then allowed to pass through a cell strainer, followed by centrifugation. The number of CD4+IFN-γ+T cells was calculated by performing flow cytometry with fluorescein-conjugated anti-CD4 antibody and phycoerythrin-conjugated anti-IFN-γ antibody, and the number of DCF-DA cells was calculated using the CM-H2DCFDA kit (manufactured by Thermo Fisher Scientific, Waltham, MA, USA)."}, "[2]": {"test_system": "experimental dry eye (EDE)-induced C57BL/6 mouse model", "experiment": "Goblet cells in conjunctiva (PAS staining histology)", "method": "as §1, §2\nThe eye and accessory tissues were excised from one eye of one animal in each group, fixed in 4% paraformaldehyde, embedded in paraffin, and then PAS staining was performed on two cross-sectional pieces of the tissue. In each piece, the density of goblet cells in the conjunctiva was calculated using a microscope and image analysis software."}, "[3]": {"test_system": "experimental dry eye (EDE)-induced C57BL/6 mouse model", "experiment": "Apoptosis (TUNEL immunofluorescent staining)", "settings": "for number of necrotic cells in the cornea: TUNEL staining", "method": "as §1\nIn both eyes of all mice, at baseline, day 5, and day 10, tear volume and tear film break-up time were measured and corneal fluorescent staining score was examined. The mice were then sacrificed and tissue analysis was performed. Each group consisted of 6 animals.\nThe eye and accessory tissues were excised from one eye of one animal in each group, fixed in 4% paraformaldehyde, embedded in paraffin, and then TUNEL staining was performed on two cross-sectional pieces of the tissue. […]"}}, "data": [{"molecule": "B1", "values": [{"measurement": "amount of reactive oxygen species generated", "setting": "[1]; conjunctiva, 2.5 mg/kg oral once a day", "value": "55.13±7.41", "unit": "%"}, {"measurement": "amount of reactive oxygen species generated", "setting": "[1]; conjunctiva, 5 mg/kg oral once a day", "value": "57.63±8.16", "unit": "%"}, {"measurement": "amount of reactive oxygen species generated", "setting": "[1]; conjunctiva, 10 mg/kg oral once a day", "value": "53.29±1.19", "unit": "%"}, {"measurement": "effect of decreasing generation of reactive oxygen species as compared with the CsA group", "setting": "[1]; cornea, 2.5 mg/kg oral", "value": "better effect"}, {"measurement": "amount of reactive oxygen species generated", "setting": "[1]; cornea, 2.5 mg/kg oral once a day", "value": "33.57±26.51", "unit": "%"}, {"measurement": "amount of reactive oxygen species generated", "setting": "[1]; cornea, 5 mg/kg oral once a day", "value": "54.53±13.53", "unit": "%"}, {"measurement": "amount of reactive oxygen species generated", "setting": "[1]; cornea, 10 mg/kg oral once a day", "value": "57.38±23.43", "unit": "%"}, {"measurement": "amount of reactive oxygen species generated", "setting": "[1]; lacrimal gland, 2.5 mg/kg oral once a day", "value": "59.05±10.77", "unit": "%"}, {"measurement": "amount of reactive oxygen species generated", "setting": "[1]; lacrimal gland, 5 mg/kg oral once a day", "value": "56.03±6.37", "unit": "%"}, {"measurement": "amount of reactive oxygen species generated", "setting": "[1]; lacrimal gland, 10 mg/kg oral once a day", "value": "49.92±4.19", "unit": "%"}, {"measurement": "number of goblet cells in the conjunctiva", "setting": "[2]; 2.5 mg/kg oral once a day", "value": "27.9±6.9", "unit": "cells/100 μm"}, {"measurement": "number of goblet cells as compared with the 0.05% CsA group", "setting": "[2]; 5 mg/kg oral", "value": "more significant increase"}, {"measurement": "number of goblet cells in the conjunctiva", "setting": "[2]; 5 mg/kg oral once a day", "value": "35.8±10.2", "unit": "cells/100 μm"}, {"measurement": "number of goblet cells in the conjunctiva", "setting": "[2]; 10 mg/kg oral once a day", "value": "32.2±3.9", "unit": "cells/100 μm"}, {"measurement": "number of goblet cells in the conjunctiva, change in treatment groups", "setting": "[2]; all treatment groups: 0.05% CsA, SodA2 2.5, 5 and 10 mg/kg oral", "value": "significant increase"}, {"measurement": "number of necrotic cells in the cornea", "setting": "[3]; 2.5 mg/kg oral once a day", "value": "6.2±1.1", "unit": "cells/100 μm"}, {"measurement": "number of necrotic cells in the cornea", "setting": "[3]; 5 mg/kg oral once a day", "value": "4.0±1.3", "unit": "cells/100 μm"}, {"measurement": "number of necrotic cells in the cornea", "setting": "[3]; 10 mg/kg oral once a day", "value": "4.6±1.3", "unit": "cells/100 μm"}, {"measurement": "number of dead cells in the cornea as compared with the EDE and vehicle groups", "setting": "[3]; groups treated with CsA and oral SodA2", "value": "significantly decreased"}]}]}
